# B1: TPR t1 (parent)
# chain: GACCAAUCUGCCCUCAGAGCUCGAGAACAUCUUCGGAUGCAGAGGAGGCAGGCUUCGGUGGCGCGAUAGCGCCAACGUCCUCAACCUCCAAUGCAUCCCACCACAUGAUGAUGCCUGAAGAGCCUUGGUUUUUUG
# Variants of: B1
# Assay: polymerase ribozyme fitness, log enrichment relative to wild type (log ratio); higher = more active; in vitro selection for triplet polymerase activity
# Outline: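 Only genotypes with ≥10 input reads and ≥1 read per output were kept after Illumina sequencing of input and output libraries. These libraries were PCR-built, transcribed mutants of each subunit of a heterodimeric triplet polymerase ribozyme, each put through one triplicate in vitro selection round with frozen incubation at −7 °C, gel excision of extended constructs, streptavidin-bead capture and RT-PCR. Fitness is a logarithmic ratio of genotype enrichment to wild-type enrichment, from inverse-variance-weighted replicate averages, with the logarithm in base 2.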
row,Variant,polymerase ribozyme fitness (log ratio)
1,C22U G77A,-4.04
2,A24G G42U G60U A66U C88G A121G,-3.8
3,G23U C56U C70G A75U U78A C99A U112A,-6.9
4,A24G,-1.19
5,A24U,-5.7
6,A24C,-6.63
7,G25C G42U G44U C104U C124U,-7.89
8,A24G C85G,-2.32
9,A24G C85A,-3.6
10,C22U G63C C88A U130C,-5.23
11,G25C G69U A111U,-7
12,A24G G57A,-2.62
13,G23A C28G G69U U78G C79U U112C G128U U133G,-5.41
14,A24G G57A G77U,-2.15
15,C22U C72U,-3.69
16,A24G C31U G60C U96G U106A G120C,-4
17,A26C C53U C86U U112A,-5.9
18,G25C C28A G48U G71U C73G G113U,-6.43
19,A24G C64U,-1.79
20,C22U A46U G69U G117A,-4.33
21,G23C C28U C102G U112A C115A G120A,-8.12
22,G23C C62A C99U U112C,-6.42
23,G23A G63C C101U A111G,-6.12
24,A24G G58U,-1.2

row,Variant,polymerase ribozyme fitness (log ratio)
1,G25U A26G A46U,-3.61
2,C22U G57U,-4.03
3,A26G A46G G60U,-3.73
4,C22U C53A C72U A95G C104A,-4.54
5,A24G G77U G113U G122U C124A,-6.49
6,A24U U38G C114A U126G U132A,-6.67
7,A24G A46U C72U U126G G128C,-4.57
8,A24U A41C G42U C62G A83G C94G C123A G127A,-6.99
9,A26C U54G A103C A105U U112C,-6.86
10,A24G G51U,-4.9
11,G23U G71C C94U C115U,-6.24
12,A24G C98U C101A,-4.13
13,G23A C49A,-5.5
14,G25U C64A C98G A111U,-8.01
15,G23C C64U G120U U133A,-7.42
16,C22G U67A G93C A103G G110U,-5.12
17,G25U U32G C72A G110A,-6.9
18,G23A C124A,-1.95
19,C22U C31G G63C C82A U87C U112A,-6.33
20,C22U C85U,-4.5
21,C22U C85A,-6.28
22,A24U G52U U55C C64A C82A C86G C99A G110A A119G,-7.53
23,A26C C49A C98U C114U,-6.14
24,G25A C72U,-5.57

row,Variant,polymerase ribozyme fitness (log ratio)
1,G25A C72A,-5.51
2,A26C G69C G117C,-6.27
3,A26C C28G G52U C88U G120A,-5.8
4,G25A G71U,-6.24
5,G23A C49U C56A U116C,-6.08
6,A26C C56G,-5.43
7,C22U C98U,-4.36
8,G23U C70G A91C C98U,-7.47
9,C22U C89U,-3.61
10,C22U C89A,-4.83
11,G23A A43C A84G U87C G117U,-6.59
12,C22U G69U C82U C124G U126A,-0.7
13,G23U U112G,-5.53
14,G23U C123A,-5.92
15,C22U A37G G61U U112C U126G G128A,-4.46
16,G23A G60A,-4.52
17,A24G U55A U130A,-1.66
18,G25C A46U G61C C62A G113A C124A,-8.51
19,A24G G42U U59G C88G,-5.92
20,C22U C114G C124A U125G,-5.84
21,A24G G39A C70U A121G,-0.648
22,C22U C40G,-4.26
23,C22G G69A C124A,-3.93
24,G25A C56U,-5.12

row,Variant,polymerase ribozyme fitness (log ratio)
1,A24U G122U,-5.4
2,A26C G36A G69U G110A,-6.98
3,A24G C86G C99U C114G,-7.76
4,G23U C62A C99A G113U G127C,-5.56
5,A24G G52A A91G,-3.17
6,A24C U38G C89U G113U,-6.49
7,A24G C73U U87C,-1.49
8,C22U A37U C56U,-5.01
9,G25U G44U C56A C70U U109G,-7.02
10,A24G U78C C114U C115A,-5.31
11,A24G G61A A84U C85A,-2.08
12,A24G A29G C56A U87G G110A U133A,-3.1
13,G25A C123A,-6.12
14,G25C C89A,-7.16
15,A24U C72G A95C G110U,-7.4
16,C22U G71A U78A,-4.62
17,C22U A43U C86U,-5.15
18,A24G C56U U125G,-2.02
19,A26G A37U G42U C72A G120C,-2.36
20,A26G A37U C72G C123U U133A,-2.74
21,A24G A90G,-1.65
22,C22U A26G A119G G122A C123A,-2.69
23,G25U C94U C101U G113A C124A,-7.17
24,C22U G69U C94G,-1.67

row,Variant,polymerase ribozyme fitness (log ratio)
1,G23C C85G C97A G120C,-7.88
2,C22U A100C,-4.93
3,A26C G57U,-6.49
4,G25C G69U G110C,-7.38
5,A24G A37U U96C G110U,-3.88
6,A24G G69A C82A A95C G120A,-4.87
7,A24C C49U C82U,-5.77
8,G23C G110C,-7.42
9,G25C G48U C72G C86G A100U C102A G117U A119G,-7.7
10,G25A G44U G52U C62U A105G U112A,-7.09
11,G25A U106A,-4.81
12,G25C C56U A68U A83G C123A C124G,-6.66
13,C22G G63U U92G G110A,-5.8
14,C22U G61C,-4.87
15,G25C C70U C73G A121G U133G,-7.65
16,A24C G48C G69U,-6.7
17,G23A G69U C115U C123G,-6.34
18,A24C A91U G117U C123G,-7.92
19,C22U A90G,-4.43
20,C22U C40G G63A A74U A75U,-5.63
21,C22U C73U U78A C89G U112A C124A,-6.98
22,C22U U38C U78C,-4.58
23,C22U A83U,-4.1
24,A26G A43U A50U C72A,-5.38

row,Variant,polymerase ribozyme fitness (log ratio)
1,A24G G36C C49A G71U,-3.84
2,A24G G48A,-1.73
3,C22G U55G G60U C62G U78C,-5.09
4,G25A C49U,-6.96
5,G23A C70A,-4.2
6,G23A C70U,-4.99
7,C22U A121C,-3
8,A24G U78C,-1.32
9,G23A G69A U78C G117C,-6.47
10,A24G G52A C115U,-2.59
11,A24U C53U,-6.23
12,C22U A26U A27U A41C G71C C82G A111C A118U G127C,-6.27
13,G25A U96A,-5.41
14,G23A C56G A95U U112A G127C,-6.5
15,G25C G71A C73A C89A G110A,-6.79
16,G25A G71A U112C,-6.36
17,A24G A50C G63U A118U G122A,-7.26
18,C22U G113C,-6.59
19,A24G G47A G77U C86U,-2.29
20,A24C C86U G110A,-5.7
21,A24C C101G U112G,-6.34
22,G25U G120C,-3.76
23,G25U G120A,-3.94
24,A24G G71U,-1.76

row,Variant,polymerase ribozyme fitness (log ratio)
1,G23C G93A,-6.59
2,A26C C56U G61A G63U C115U U129G U131A,-4.23
3,A24G G60A,-1.82
4,G25A C70U,-5.76
5,C22U C123A,-3.4
6,A24G C73U C88U C101U,-2.26
7,C22U C56U,-3.77
8,C22U G44C C56U,-4.25
9,A26C C53A U112G,-5.53
10,G25C G47A A103U C115G,-7.4
11,G25C C123G,-5.25
12,G25C U32C G45A C49A A68U G69A A121U,-7.08
13,A24G G48U G110A U132A,-3.72
14,A24U G47A G52A G61A C101G C114G G122A,-7.25
15,G25U C31G U55G G71C C115A A119U G122A,-6.9
16,C22U C72A C79A,-5.61
17,C22U U55G C123A,-4.35
18,C22G U106A,-2.37
19,G23A U38A G58C A121C C124A,-6.22
20,A24G C56A G60U A83C U133A,-2.54
21,G23A G61A,-4.6
22,A24G A29U G47A A74G U87A U109G,-6.31
23,G23A G69U A90U C124U,-5.33

# Source: the RNAGym collection of RNA variant scans (doi:10.1073/pnas.2313332121)
